Molecular target: Methanocaldococcus jannaschii Bud32 (Methanocaldococcus jannaschii) (UniProt Q58530)
Sequence (Q58530 whole entry): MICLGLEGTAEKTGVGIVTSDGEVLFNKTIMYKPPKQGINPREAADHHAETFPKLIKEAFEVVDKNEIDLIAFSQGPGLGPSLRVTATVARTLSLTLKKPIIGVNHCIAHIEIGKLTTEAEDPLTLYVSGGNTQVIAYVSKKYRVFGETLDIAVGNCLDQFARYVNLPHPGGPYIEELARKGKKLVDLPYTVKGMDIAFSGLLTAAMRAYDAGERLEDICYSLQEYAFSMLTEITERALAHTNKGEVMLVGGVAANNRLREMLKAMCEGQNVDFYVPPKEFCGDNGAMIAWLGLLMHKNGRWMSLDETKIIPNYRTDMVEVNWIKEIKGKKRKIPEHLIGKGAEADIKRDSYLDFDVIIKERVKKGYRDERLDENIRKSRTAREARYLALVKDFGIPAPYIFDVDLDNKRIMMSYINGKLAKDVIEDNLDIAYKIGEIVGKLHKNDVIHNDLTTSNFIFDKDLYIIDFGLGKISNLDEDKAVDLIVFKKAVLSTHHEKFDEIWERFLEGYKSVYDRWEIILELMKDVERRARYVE

- ATPase activity of mjBud32 (ADP Glo assay), potentiation by mjCgi121: 10 fold
B1: Methanocaldococcus jannaschii Cgi121 (natural protein)
chain: MIIRGIRGARINNEIFNLGLKFQILNADVVATKKHVLHAINQAKTKKPIAKSFWMEILVRASGQRQIHEAIKIIGAKDGNVCLICEDEETFRKIYELIGGEIDDSVLEINEDKERLIREIFKIRGFGNVVERVLEKIALIELKKE

Reference: paper PMC7718258
